The results in this text go back to paper PMC8894376 (Nature Communications, 2022).

The target in this assay is Recombinant full-length human α-synuclein (1–140) (human, UniProt P37840 1-140). As to the kind of experiment: turbidity of phase separation (absorbance at 350 nm). Conditions: both partners purified.

B1: PrP 23–144 (Y145Stop) (domain or fragment)
chain: KKRPKPGGWNTGGSRYPGQGSPGGNRYPPQGGGGWGQPHGGGWGQPHGGGWGQPHGGGWGQPHGGGWGQGGGTHSQWNKPSKPKTNMKHMAGAAAAGAVVGGLGGYMLGSAMSRPIIHFGSD
With B1, the binding result is given as “binds”.
